# Patent US20010010923A1, “MODIFIED CARBOXYPEPTIDASE” (priority 1997, published 2001)
# Entries after “also recorded” stand apart in the source; their conditions may differ. Marks after values point to notes of the source that are not given here.
# B1: T60Y: carboxypeptidase Y S1' mutant, substitution T60Y (protein, UniProt P00729 112-532, looked up, variant T60Y)
# Carboxypeptidase Y: KIKDPKILGIDPNVTQYTGYLDVEDEDKHFFFWTFESRNDPAKDPVILWLNGGPGCSSLYGLFFELGPSSIGPDLKPIGNPYSWNSNATVIFLDQPVNVGFSYSGSSGVSNTVAAGKDVYNFLELFFDQFPEYVNKGQDFHIAGESYAGHYIPVFASEILSHKDRNFNLTSVLIGNGLTDPLTQYNYYEPMACGEGGEPSVLPSEECSAMEDSLERCLGLIESCYDSQSVWSCVPATIYCNNAQLAPYQRTGRNVYDIRKDCEGGNLCYPTLQDIDDYLNQDYVKEAVGAEVDHYESCNFDINRNFLFAGDWMKPYHTAVTDLLNQDLPILVYAGDKDFICNWLGNKAWTDVLPWKYDEEFASQKVRNWTASITDEVAGEVKSYKHFTYLRVFNGGHMVPFDVPENALSMVNEWIHGGFSL
# B2: M398I: carboxypeptidase Y S1' mutant, substitution M398I (protein, UniProt P00729 112-532, looked up, variant M398I)
# Carboxypeptidase Y: KIKDPKILGIDPNVTQYTGYLDVEDEDKHFFFWTFESRNDPAKDPVILWLNGGPGCSSLTGLFFELGPSSIGPDLKPIGNPYSWNSNATVIFLDQPVNVGFSYSGSSGVSNTVAAGKDVYNFLELFFDQFPEYVNKGQDFHIAGESYAGHYIPVFASEILSHKDRNFNLTSVLIGNGLTDPLTQYNYYEPMACGEGGEPSVLPSEECSAMEDSLERCLGLIESCYDSQSVWSCVPATIYCNNAQLAPYQRTGRNVYDIRKDCEGGNLCYPTLQDIDDYLNQDYVKEAVGAEVDHYESCNFDINRNFLFAGDWMKPYHTAVTDLLNQDLPILVYAGDKDFICNWLGNKAWTDVLPWKYDEEFASQKVRNWTASITDEVAGEVKSYKHFTYLRVFNGGHIVPFDVPENALSMVNEWIHGGFSL
# B3: T60D: carboxypeptidase Y S1' mutant, substitution T60D (protein, UniProt P00729 112-532, looked up, variant T60D)
# Carboxypeptidase Y: KIKDPKILGIDPNVTQYTGYLDVEDEDKHFFFWTFESRNDPAKDPVILWLNGGPGCSSLDGLFFELGPSSIGPDLKPIGNPYSWNSNATVIFLDQPVNVGFSYSGSSGVSNTVAAGKDVYNFLELFFDQFPEYVNKGQDFHIAGESYAGHYIPVFASEILSHKDRNFNLTSVLIGNGLTDPLTQYNYYEPMACGEGGEPSVLPSEECSAMEDSLERCLGLIESCYDSQSVWSCVPATIYCNNAQLAPYQRTGRNVYDIRKDCEGGNLCYPTLQDIDDYLNQDYVKEAVGAEVDHYESCNFDINRNFLFAGDWMKPYHTAVTDLLNQDLPILVYAGDKDFICNWLGNKAWTDVLPWKYDEEFASQKVRNWTASITDEVAGEVKSYKHFTYLRVFNGGHMVPFDVPENALSMVNEWIHGGFSL
# B4: M398G: carboxypeptidase Y S1' mutant, substitution M398G (protein, UniProt P00729 112-532, looked up, variant M398G)
# Carboxypeptidase Y: KIKDPKILGIDPNVTQYTGYLDVEDEDKHFFFWTFESRNDPAKDPVILWLNGGPGCSSLTGLFFELGPSSIGPDLKPIGNPYSWNSNATVIFLDQPVNVGFSYSGSSGVSNTVAAGKDVYNFLELFFDQFPEYVNKGQDFHIAGESYAGHYIPVFASEILSHKDRNFNLTSVLIGNGLTDPLTQYNYYEPMACGEGGEPSVLPSEECSAMEDSLERCLGLIESCYDSQSVWSCVPATIYCNNAQLAPYQRTGRNVYDIRKDCEGGNLCYPTLQDIDDYLNQDYVKEAVGAEVDHYESCNFDINRNFLFAGDWMKPYHTAVTDLLNQDLPILVYAGDKDFICNWLGNKAWTDVLPWKYDEEFASQKVRNWTASITDEVAGEVKSYKHFTYLRVFNGGHGVPFDVPENALSMVNEWIHGGFSL
# B5: M398V: carboxypeptidase Y S1' mutant, substitution M398V (protein, UniProt P00729 112-532, looked up, variant M398V)
# Carboxypeptidase Y: KIKDPKILGIDPNVTQYTGYLDVEDEDKHFFFWTFESRNDPAKDPVILWLNGGPGCSSLTGLFFELGPSSIGPDLKPIGNPYSWNSNATVIFLDQPVNVGFSYSGSSGVSNTVAAGKDVYNFLELFFDQFPEYVNKGQDFHIAGESYAGHYIPVFASEILSHKDRNFNLTSVLIGNGLTDPLTQYNYYEPMACGEGGEPSVLPSEECSAMEDSLERCLGLIESCYDSQSVWSCVPATIYCNNAQLAPYQRTGRNVYDIRKDCEGGNLCYPTLQDIDDYLNQDYVKEAVGAEVDHYESCNFDINRNFLFAGDWMKPYHTAVTDLLNQDLPILVYAGDKDFICNWLGNKAWTDVLPWKYDEEFASQKVRNWTASITDEVAGEVKSYKHFTYLRVFNGGHVVPFDVPENALSMVNEWIHGGFSL
# B6: M398A: carboxypeptidase Y S1' mutant, substitution M398A (protein, UniProt P00729 112-532, looked up, variant M398A)
# Carboxypeptidase Y: KIKDPKILGIDPNVTQYTGYLDVEDEDKHFFFWTFESRNDPAKDPVILWLNGGPGCSSLTGLFFELGPSSIGPDLKPIGNPYSWNSNATVIFLDQPVNVGFSYSGSSGVSNTVAAGKDVYNFLELFFDQFPEYVNKGQDFHIAGESYAGHYIPVFASEILSHKDRNFNLTSVLIGNGLTDPLTQYNYYEPMACGEGGEPSVLPSEECSAMEDSLERCLGLIESCYDSQSVWSCVPATIYCNNAQLAPYQRTGRNVYDIRKDCEGGNLCYPTLQDIDDYLNQDYVKEAVGAEVDHYESCNFDINRNFLFAGDWMKPYHTAVTDLLNQDLPILVYAGDKDFICNWLGNKAWTDVLPWKYDEEFASQKVRNWTASITDEVAGEVKSYKHFTYLRVFNGGHAVPFDVPENALSMVNEWIHGGFSL
# Tests used:
# [1] = Transpeptidation of FA-Ala-OBzl with H-Leu-NH2, Table 3; type: biochemical; settings: FA-Ala-OBzl 0.2 mM, pH 7.5; for fa: H-Leu-NH2; for KN(app): nucleophile H-Leu-NH2 concentration at which fa is half of maximum
# Method: (§1) Transamidation reactions were carried out generally as described in PCT Application WO 95/20039. In general, the method included dissolving the nucleophile (H-Leu-NH2, unless otherwise indicated) in 50 mM HEPES, 5 mM EDTA and adjusting the pH to 7.5, 5 μl of peptide substrate (8 mM Bz-G-A-R-A-R-A-OH, unless otherwise indicated, in methanol) was added to 190 μl nucleophile solution followed by 5 μl enzyme, resulting in a substrate concentration of 0.2 mM.
# (§2) During the reaction, 20 μl aliquots were removed from the reaction mixture and added to 50 μl 1% trifluoroacetic acid to quench the reaction. The reactant composition was determined by HPLC using a Waters HPLC equipped with a C-18 Waters Novapac 4μ reverse phase column and various gradients of acetonitrile in 0.1% trifluoroacetic acid. The separation was monitored at 254 nm allowing the direct quantification of the products from the integrated peak areas. The composition of the reaction mixture was determined at least twvice during the reaction, the first when 20-50% (preferably 35%) of the substrate had been consumed in the reaction and the second time when 50-90% (preferably 80%) of the peptide substrate had been consumed.
# (§3) The fraction of aminolysis (fa) was expressed as the ratio between the formed aminolysis product and the sum of all products formed. Unconsumed substrate was disregarded in the calculations.
# Site specific mutagenesis was performed as described in Example 1 to produce the specific substitution mutants described below. Transamidation reactions were performed as described for Example 1.
# In table 3, below, KN(app) represents the nucleophile concentration at which fa is half of the maximum value (a measure for the dissociation constant of the nucleophile). famax is the highest possible fa obtained at saturation of the enzyme with the nucleophile.
# KN(app) indicates the concentration at which famax/2 is reached and thus describes the apparent binding constant of the nucleophile. Because the competing hydrolysis reaction is thought to occur while the leaving group remains attached to the to the acyl-enzyme intermediate, a low KN(app) is preferred.
# [2] = Transpeptidation of FA-Ala-Xaa-OH with H-Gly-NH2, Table 2; type: biochemical; settings: for Fraction of aminolysis (fa), P1' Ala: FA-Ala-Ala-OH 0.2 mM; for Fraction of aminolysis (fa), P1' Ala / Fraction of aminolysis (fa), P1' Leu / Fraction of aminolysis (fa), P1' Met / Fraction of aminolysis (fa), P1' Phe / Fraction of aminolysis (fa), P1' Val: 1.9 M H-Gly-NH2, pH 7.5, room temperature; for Fraction of aminolysis (fa), P1' Leu: FA-Ala-Leu-OH 0.2 mM; for Fraction of aminolysis (fa), P1' Met: FA-Ala-Met-OH 0.2 mM; for Fraction of aminolysis (fa), P1' Phe: FA-Ala-Phe-OH 0.2 mM; for Fraction of aminolysis (fa), P1' Val: FA-Ala-Val-OH 0.2 mM; for fraction of aminolysis compared to wild type, in words: larger, hydrophobic leaving group such as leucine
# Method: as §1, §2, §3
# Site specific mutagenesis was performed as described for Example 1 to produce the S1 mutants used below.
# Transamidation reactions were performed as described for Example 1.
Molecule,fa [1],"Fraction of aminolysis (fa), P1' Ala [2]","Fraction of aminolysis (fa), P1' Leu [2]","Fraction of aminolysis (fa), P1' Met [2]","Fraction of aminolysis (fa), P1' Phe [2]","Fraction of aminolysis (fa), P1' Val [2]","fraction of aminolysis compared to wild type, in words [2]",KN(app) [1],"fraction of aminolysis compared to wild type, in words ([2]; listed as M3981)"
B1,0.95^a,0.90,0.66,0.58,0.51,0.43,improvement in fraction of aminolysis obtained; also recorded: most dramatic improvement; also recorded: most effective at increasing the fraction of aminolysis,,
B2,0.94^a,0.93,0.91,0.83,0.75,0.87,improvement in fraction of aminolysis obtained; also recorded: most dramatic improvement,0.91^b mM,enhanced transpeptidation
B3,0.94^a,0.87,0.25,0.15,0.15,0.53,improvement in fraction of aminolysis obtained,1.5^c mM,
B4,0.95^a,0.93,0.59,0.83,0.66,0.42,improvement in fraction of aminolysis obtained,1.6^a mM,
B5,0.87^a,0.93,0.91,0.83,0.86,0.81,improvement in fraction of aminolysis obtained; also recorded: most dramatic improvement; also recorded: enhanced transpeptidation,1.43^b mM,
B6,0.93^a,0.93,0.84,0.89,0.84,0.65,improvement in fraction of aminolysis obtained; also recorded: enhanced transpeptidation,0.83^a mM,
